This series has as its system F1*sub RNA substrate (template-directed ligation). The series is described as follows: fraction ligated after 30 min (ligated reads / total reads); higher = more ligase activity; sequences stand for … in GAGACCGCAACTGAAAAGTTGT…AGTTCTGCACGTAGAAGCAAAAGGC
Conditions: 42 °C. The procedure: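 Chip-synthesised pool of F1* ligase ribozyme variants (all single and double substitutions, single, double and triple deletions in the catalytic core and GAA bulge, plus designed variants) was transcribed with T7 and reacted as a pool with excess substrate F1*sub for 30 min at 42 C in 50 mM EPPS pH 8.5, 25 mM MgCl2. Ligated and unligated bands were separated by PAGE, barcoded by RT and deep sequenced; fraction ligated = ligated reads / total reads per variant, relative activity = FL / FL of wild type (0.826). Sequences are the DNA template of the ribozyme.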
In turn, TCACTTGTCGTAAGACATTTGGATGGGTTGA [3d16] gave a fraction ligated of 0.782.
The value for ATCATTGTCGTAGACACTTTGGATGGGTTGA [3d92] was 0.761; that for ATCCTTTCGTAAGACACTTTGGATGGGTTGA [3d68] was 0.791; that for TATCTTGTCGTAAGACATTTGGATGGGTTGA [3d750] was 0.806.
For the sequence “TATCACTTGTCGTAAGAATTTGGATGGGTTG [3d2158]”, the fraction ligated is 0.798.
As for TTCACTTGTGTAAGACACTTGGATGGGTTGA [3d395], the fraction ligated was determined as 0.161.
With ATCACTTGTCGTAAGACACTTTGGGGGTTGA [3d266] the figure was 0.0143; with “TATCCTTGTGTAAGACACTTGGATGGGTTGA [3d1008]”, 0.367.
With TACACTTGTCGTAAGACACTTTGGATGGTTG [3d735] the figure was 0.507; with “TATCACTTGTCGTAAGACATTTGGTGGGTTA [3d2222]”, 0.00331; with “TATCACTTGTCGTAAACACTTTGGATGGGTTG [2d243]”, 0.827.
With “TATCCTTGTCGTAGACATTTGGATGGGTTGA [3d1047]” the figure was 0.768.
In turn, ATCACTTGTCTAGACACTTTGGATGGGTTGA [3d172] had a fraction ligated of 0.734.
In turn, TATACTGTCGTAAGCACTTTGGATGGGTTGA [3d785] had a fraction ligated of 0.759.
As to TACACTTGTCTAAGACACTTTGGATGGGTTGA [2d54], the fraction ligated amounted to 0.609.
With “TATCACTTGTCGTAAGACATTTGGAGGGTTA [3d2225]” the figure was 0.0022; with TACACTTGTCGTAAGAACTTTGATGGGTTGA [3d694], 0.00588.
The value for TATCCTTTCGTAAGACACTTTGGATGGGTTG [3d983] was 0.766; that for TACACTGTCGTAAGACACTTTGGATGGGTTGA [2d50] was 0.432; that for TATACTTGTCGTAAGACACTTTGGATGGGTTGA [1d4] was 0.791.
The value for ATCCTTGTCGAAGACACTTTGGATGGGTTGA [3d72] was 0.773; that for TACACTGTGTAAGACACTTTGGATGGGTTGA [3d569] was 0.632; that for “TATCCTTGTCGTAAGACACTTTGGAGGTTGA [3d1114]” was 0.00283.
“TATCATTGTCGTAAACACTTTGGAGGGTTGA [3d1233]” returned a fraction ligated of 0.0387.
The value for “TATCACTTGGTAAGACACTTTGGAGGGTTGA [3d1595]” was 0.0523; that for TTCACTGTCGTAAGACACTTGGATGGGTTGA [3d348] was 0.762.
TACACTTGTCGTAGACACTTGGATGGGTTGA [3d665] came in with a fraction ligated of 0.101.
“TATCACTTTCGTAAGACACTTGGATGGTTGA [3d1565]” gave a fraction ligated of 0.134.
With “TATCACTTGTCGTAAGACACTTTGGGGGTTG [3d2272]” the figure was 0.0105; with “TATCACTTGTCGTAAGACCTTGGTGGGTTGA [3d2185]”, 0.0725.
Consider “TATCACTGTGTAAGACACTTTGGATGGGTTG [3d1357]”, for which the fraction ligated was found to be 0.843.
The value for “TATCACTTGTCGTAAGACACTTTATGGTTGA [3d2257]” was 0.0255; that for TATACTTGTGTAGACACTTTGGATGGGTTGA [3d830] was 0.776.
With “TATCACTTGTGTAAGCACTTTGGATGGGTTG [3d1763]” the figure was 0.851.
The value for “TATCATTGTCGTAAGAACTTGGATGGGTTGA [3d1248]” was 0.831; that for “TATCACTTGTCGTAAGACATTTGGATGGGTTG [2d275]” was 0.828; that for “TATCACTTGTGAAGACACTTGGATGGGTTGA [3d1724]” was 0.801.
TATACTTGTCGTAAGACCTTTGGATGGGTTG [3d917] returned a fraction ligated of 0.719.
The sequence “TATCACTTGTCTAAACACTTTGGAGGGTTGA [3d1842]” yielded a fraction ligated of 0.133.
With “TATCACTTGTCTAGACACTTTGGATGGGTTGA [2d195]” the figure was 0.799.

The record behind these values is the supplement of paper PMC6755084.
